Experimental data published in patent publication KR20180129514A (dated 2018).

Target: T1, mCherry H-RAS G12V (NIH3T3 세포주에서 발현) (UniProt P01112 1-186)
T1 construct: whole, on cells; Intracellular, at the inner face of the cell membrane; also called 세포내 활성화된 H-RAS G12V 돌연변이; 활성화된 RAS; not shown: mCherry red fluorescent protein
Assay: confocal microscopy, overlap in NIH3T3 cells expressing mCherry H-RAS G12V

B1: 세포질 침투 항체 TMab4 (antibody, V domains shown)
VH: EVQLVESGGGLVQPGGSLRLSCAASGYTFTSYVMHWVRQAPGKGLEWVSAINPYNDGNYYADSVKGRFTISRDNSRKTLYLQMNSLRAEDTAVYYCARGAYKRGYAMDYWGQGTTVTVSS
VL: DLVMTQSPSSLSASVGDRVTITCKSSQSLFNSRTRKNYLAWYQQKPGKAPKLLIYWASTRESGVPSRFSGSGSGTDFTLTISSLQPEDFATYYCQQYYYHMYTFGQGTKVEIKR
notes: Full IgG format (CH1-hinge-CH2-CH3 and CL, detected with anti-human Fc); also called cytotransmab; CT
**Q.** Does B1 bind?
**A.** no binding (tested: 2 μM)
